Assays:
[1] = molecular target: T1, Human complement factor H purified from plasma (human, UniProt P08603 19-1231); test: SPR
T1 construct: also called Plasma CFH; plasma-purified CFH

[2] = molecular target: T1, Human complement factor H purified from …; test: not stated there (SPR in the examples)
[3] = molecular target: Human C3b (plasma-purified) (human, UniProt P01024 23-667; P01024 749-1663); test: SPR, amine-coupled C3b on C1 chip, equilibrium 1:1 fit
[4] = molecular target: T1, Human complement factor H purified from …; test: SPR, same assay as for PspCN (37-140)

Chain of Human C3b (plasma-purified) (P01024 23-667 limits assumed, chain 1 of 2): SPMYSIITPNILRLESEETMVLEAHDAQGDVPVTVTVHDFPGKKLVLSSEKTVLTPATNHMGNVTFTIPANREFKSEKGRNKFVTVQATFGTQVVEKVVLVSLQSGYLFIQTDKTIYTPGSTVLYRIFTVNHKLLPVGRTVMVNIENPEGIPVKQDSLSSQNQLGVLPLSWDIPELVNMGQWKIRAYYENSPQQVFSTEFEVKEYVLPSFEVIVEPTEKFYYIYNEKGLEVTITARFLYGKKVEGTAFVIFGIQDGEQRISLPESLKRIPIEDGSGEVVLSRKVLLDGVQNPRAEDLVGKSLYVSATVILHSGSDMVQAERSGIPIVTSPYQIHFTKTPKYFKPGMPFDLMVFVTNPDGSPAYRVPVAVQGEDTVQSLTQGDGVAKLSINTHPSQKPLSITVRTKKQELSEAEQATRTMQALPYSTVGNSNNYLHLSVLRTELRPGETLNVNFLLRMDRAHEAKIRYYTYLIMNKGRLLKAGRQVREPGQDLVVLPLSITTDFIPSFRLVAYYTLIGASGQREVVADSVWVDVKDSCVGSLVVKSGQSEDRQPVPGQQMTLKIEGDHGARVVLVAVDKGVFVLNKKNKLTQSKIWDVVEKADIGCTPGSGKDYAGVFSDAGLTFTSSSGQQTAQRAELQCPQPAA
Chain of Human C3b (plasma-purified) (P01024 749-1663 limits assumed, chain 2 of 2): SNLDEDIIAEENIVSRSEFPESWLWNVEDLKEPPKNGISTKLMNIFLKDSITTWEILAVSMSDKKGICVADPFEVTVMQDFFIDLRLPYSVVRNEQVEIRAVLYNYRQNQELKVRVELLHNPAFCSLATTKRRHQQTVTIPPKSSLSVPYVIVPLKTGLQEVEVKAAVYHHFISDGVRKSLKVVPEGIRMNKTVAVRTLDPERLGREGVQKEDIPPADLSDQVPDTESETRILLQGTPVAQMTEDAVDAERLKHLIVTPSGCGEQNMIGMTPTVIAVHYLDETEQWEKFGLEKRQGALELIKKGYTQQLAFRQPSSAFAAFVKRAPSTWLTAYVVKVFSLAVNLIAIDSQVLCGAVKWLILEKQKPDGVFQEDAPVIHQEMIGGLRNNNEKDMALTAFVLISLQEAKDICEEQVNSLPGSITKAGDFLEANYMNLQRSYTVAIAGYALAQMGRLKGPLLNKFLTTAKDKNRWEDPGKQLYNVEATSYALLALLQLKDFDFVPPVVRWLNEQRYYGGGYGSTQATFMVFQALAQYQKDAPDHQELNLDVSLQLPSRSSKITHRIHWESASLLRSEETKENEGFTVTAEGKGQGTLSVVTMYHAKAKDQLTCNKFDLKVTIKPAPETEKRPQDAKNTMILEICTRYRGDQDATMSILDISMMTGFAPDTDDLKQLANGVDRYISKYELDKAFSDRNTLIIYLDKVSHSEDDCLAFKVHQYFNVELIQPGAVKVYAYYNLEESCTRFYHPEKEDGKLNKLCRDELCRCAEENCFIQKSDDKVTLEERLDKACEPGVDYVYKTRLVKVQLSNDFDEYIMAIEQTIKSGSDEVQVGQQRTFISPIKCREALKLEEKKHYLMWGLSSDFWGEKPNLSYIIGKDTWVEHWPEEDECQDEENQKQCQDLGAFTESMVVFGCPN

Binder | Kd [3] [nM] | decrease in binding affinity against PspCN (37-140) [4] | further results
sPspCNR1 (N-terminally hexaHis-SUMO-tagged PspC residues 37-292, strain D39, including the R1 domain) (other, not shown: N-terminal hexaHis-SUMO tag from the pE-SUMOpro Kan vector) ATENEGSTQAATSSNMAKTEHRKAAKQVVDEYIEKMLREIQLDRRKHTQNVALNIKLSAIKTKYLRELNVLEEKSKDELPSEIKAKLDAAFEKFKKDTLKPGEKVAEAKKKVEEAKKKAEDQKEEDRRNYPTNTYKTLELEIAEFDVKVKEAELELVKEEAKESRNEGTIKQAKEKVESKKAEATRLENIKTDRKKAEEEAKRKADGKLKEANVATSDQGKPKGRAKRGVPGELATPDKKENDAKSSDSSVGEETL | – | – | binding result [1]: binds
PspC (62-140) (other) KQVVDEYIEKMLREIQLDRRKHTQNVALNIKLSAIKTKYLRELNVLEEKSKDELPSEIKAKLDAAFEKFKKDTLKPGEK | – | – | Kd [2]: ~0.05 pM
rCFH-D1119G:PspCN complex (other, also called PspCN:CFH (D1119G)) chain 1: EDCNELPPRRNTEILTGSWSDQTYPEGTQAIYKCRPGYRSLGNVIMVCRKGEWVALNPLRKCQKRPCGHPGDTPFGTFTLTGGNVFEYGVKAVYTCNEGYQLLGEINYRECDTDGWTNDIPICEVVKCLPVTAPENGKIVSSAMEPDREYHFGQAVRFVCNSGYKIEGDEEMHCSDDGFWSKEKPKCVEISCKSPDVINGSPISQKIIYKENERFQYKCNMGYEYSERGDAVCTESGWRPLPSCEEKSCDNPYIPNGDYSPLRIKHRTGDEITYQCRNGFYPATRGNTAKCTSTGWIPAPRCTLKPCDYPDIKHGGLYHENMRRPYFPVAVGKYYSYYCDEHFETPSGSYWDHIHCTQDGWSPAVPCLRKCYFPYLENGYNQNYGRKFVQGKSIDVACHPGYALPKAQTTVTCMENGWSPTPRCIRVKTCSKSSIDIENGFISESQYTYALKEKAKYQCKLGYVTADGETSGSITCGKDGWSAQPTCIKSCDIPVFMNARTKNDFTWFKLNDTLDYECHDGYESNTGSTTGSIVCGYNGWSDLPICYERECELPKIDVHLVPDRKKDQYKVGEVLKFSCKPGFTIVGPNSVQCYHFGLSPDLPICKEQVQSCGPPPELLNGNVKEKTKEEYGHSEVVEYYCNPRFLMKGPNKIQCVDGEWTTLPVCIVEESTCGDIPELEHGWAQLSSPPYYYGDSVEFNCSESFTMIGHRSITCIHGVWTQLPQCVAIDKLKKCKSSNLIILEEHLKNKKEFDHNSNIRYRCRGKEGWIHTVCINGRWDPEVNCSMAQIQLCPPPPQIPNSHNMTTTLNYRDGEKVSVLCQENYLIQEGEEITCKDGRWQSIPLCVEKIPCSQPPQIEHGTINSSRSSQESYAHGTKLSYTCEGGFRISEENETTCYMGKWSSPPQCEGLPCKSPPEISHGVVAHMSDSYQYGEEVTYKCFEGFGIDGPAIAKCLGEKWSHPPSCIKTDCLSLPSFENAIPMGEKKDVYKAGEQVTYTCATYYKMDGASNVTCINSRWTGRPTCRDTSCVNPPTVQNAYIVSRQMSKYPSGERVRYQCRSPYEMFGDEEVMCLNGNWTEPPQCKDSTGKCGPPPPIDNGGITSFPLSVYAPASSVEYQCQNLYQLEGNKRITCRNGQWSEPPKCLHPCVISREIMENYNIALRWTAKQKLYSRTGESVEFVCKRGYRLSSRSHTLRTTCWDGKLEYPTCAKR chain 2: ATENEGSTQAATSSNMAKTEHRKAAKQVVDEYIEKMLREIQLDRRKHTQNVALNIKLSAIKTKYLRELNVLEEKSKDELPSEIKAKLDAAFEKFKKDTLKPGEK | 320 | – | –
Recombinant human CFH, wild-type sequence, from Pichia pastoris (other, also called rCFH; CFH (wt)) EDCNELPPRRNTEILTGSWSDQTYPEGTQAIYKCRPGYRSLGNVIMVCRKGEWVALNPLRKCQKRPCGHPGDTPFGTFTLTGGNVFEYGVKAVYTCNEGYQLLGEINYRECDTDGWTNDIPICEVVKCLPVTAPENGKIVSSAMEPDREYHFGQAVRFVCNSGYKIEGDEEMHCSDDGFWSKEKPKCVEISCKSPDVINGSPISQKIIYKENERFQYKCNMGYEYSERGDAVCTESGWRPLPSCEEKSCDNPYIPNGDYSPLRIKHRTGDEITYQCRNGFYPATRGNTAKCTSTGWIPAPRCTLKPCDYPDIKHGGLYHENMRRPYFPVAVGKYYSYYCDEHFETPSGSYWDHIHCTQDGWSPAVPCLRKCYFPYLENGYNQNYGRKFVQGKSIDVACHPGYALPKAQTTVTCMENGWSPTPRCIRVKTCSKSSIDIENGFISESQYTYALKEKAKYQCKLGYVTADGETSGSITCGKDGWSAQPTCIKSCDIPVFMNARTKNDFTWFKLNDTLDYECHDGYESNTGSTTGSIVCGYNGWSDLPICYERECELPKIDVHLVPDRKKDQYKVGEVLKFSCKPGFTIVGPNSVQCYHFGLSPDLPICKEQVQSCGPPPELLNGNVKEKTKEEYGHSEVVEYYCNPRFLMKGPNKIQCVDGEWTTLPVCIVEESTCGDIPELEHGWAQLSSPPYYYGDSVEFNCSESFTMIGHRSITCIHGVWTQLPQCVAIDKLKKCKSSNLIILEEHLKNKKEFDHNSNIRYRCRGKEGWIHTVCINGRWDPEVNCSMAQIQLCPPPPQIPNSHNMTTTLNYRDGEKVSVLCQENYLIQEGEEITCKDGRWQSIPLCVEKIPCSQPPQIEHGTINSSRSSQESYAHGTKLSYTCEGGFRISEENETTCYMGKWSSPPQCEGLPCKSPPEISHGVVAHMSDSYQYGEEVTYKCFEGFGIDGPAIAKCLGEKWSHPPSCIKTDCLSLPSFENAIPMGEKKDVYKAGEQVTYTCATYYKMDGASNVTCINSRWTGRPTCRDTSCVNPPTVQNAYIVSRQMSKYPSGERVRYQCRSPYEMFGDEEVMCLNGNWTEPPQCKDSTGKCGPPPPIDNGDITSFPLSVYAPASSVEYQCQNLYQLEGNKRITCRNGQWSEPPKCLHPCVISREIMENYNIALRWTAKQKLYSRTGESVEFVCKRGYRLSSRSHTLRTTCWDGKLEYPTCAKR | 580 | – | –
Recombinant human CFH (D1119G) from Pichia pastoris (other, also called rCFH-D1119G; rCFH (D1119G)) EDCNELPPRRNTEILTGSWSDQTYPEGTQAIYKCRPGYRSLGNVIMVCRKGEWVALNPLRKCQKRPCGHPGDTPFGTFTLTGGNVFEYGVKAVYTCNEGYQLLGEINYRECDTDGWTNDIPICEVVKCLPVTAPENGKIVSSAMEPDREYHFGQAVRFVCNSGYKIEGDEEMHCSDDGFWSKEKPKCVEISCKSPDVINGSPISQKIIYKENERFQYKCNMGYEYSERGDAVCTESGWRPLPSCEEKSCDNPYIPNGDYSPLRIKHRTGDEITYQCRNGFYPATRGNTAKCTSTGWIPAPRCTLKPCDYPDIKHGGLYHENMRRPYFPVAVGKYYSYYCDEHFETPSGSYWDHIHCTQDGWSPAVPCLRKCYFPYLENGYNQNYGRKFVQGKSIDVACHPGYALPKAQTTVTCMENGWSPTPRCIRVKTCSKSSIDIENGFISESQYTYALKEKAKYQCKLGYVTADGETSGSITCGKDGWSAQPTCIKSCDIPVFMNARTKNDFTWFKLNDTLDYECHDGYESNTGSTTGSIVCGYNGWSDLPICYERECELPKIDVHLVPDRKKDQYKVGEVLKFSCKPGFTIVGPNSVQCYHFGLSPDLPICKEQVQSCGPPPELLNGNVKEKTKEEYGHSEVVEYYCNPRFLMKGPNKIQCVDGEWTTLPVCIVEESTCGDIPELEHGWAQLSSPPYYYGDSVEFNCSESFTMIGHRSITCIHGVWTQLPQCVAIDKLKKCKSSNLIILEEHLKNKKEFDHNSNIRYRCRGKEGWIHTVCINGRWDPEVNCSMAQIQLCPPPPQIPNSHNMTTTLNYRDGEKVSVLCQENYLIQEGEEITCKDGRWQSIPLCVEKIPCSQPPQIEHGTINSSRSSQESYAHGTKLSYTCEGGFRISEENETTCYMGKWSSPPQCEGLPCKSPPEISHGVVAHMSDSYQYGEEVTYKCFEGFGIDGPAIAKCLGEKWSHPPSCIKTDCLSLPSFENAIPMGEKKDVYKAGEQVTYTCATYYKMDGASNVTCINSRWTGRPTCRDTSCVNPPTVQNAYIVSRQMSKYPSGERVRYQCRSPYEMFGDEEVMCLNGNWTEPPQCKDSTGKCGPPPPIDNGGITSFPLSVYAPASSVEYQCQNLYQLEGNKRITCRNGQWSEPPKCLHPCVISREIMENYNIALRWTAKQKLYSRTGESVEFVCKRGYRLSSRSHTLRTTCWDGKLEYPTCAKR | 540 | – | –
rCFH:PspCN complex (other, also called CFH (wt):PspCN) chain 1: EDCNELPPRRNTEILTGSWSDQTYPEGTQAIYKCRPGYRSLGNVIMVCRKGEWVALNPLRKCQKRPCGHPGDTPFGTFTLTGGNVFEYGVKAVYTCNEGYQLLGEINYRECDTDGWTNDIPICEVVKCLPVTAPENGKIVSSAMEPDREYHFGQAVRFVCNSGYKIEGDEEMHCSDDGFWSKEKPKCVEISCKSPDVINGSPISQKIIYKENERFQYKCNMGYEYSERGDAVCTESGWRPLPSCEEKSCDNPYIPNGDYSPLRIKHRTGDEITYQCRNGFYPATRGNTAKCTSTGWIPAPRCTLKPCDYPDIKHGGLYHENMRRPYFPVAVGKYYSYYCDEHFETPSGSYWDHIHCTQDGWSPAVPCLRKCYFPYLENGYNQNYGRKFVQGKSIDVACHPGYALPKAQTTVTCMENGWSPTPRCIRVKTCSKSSIDIENGFISESQYTYALKEKAKYQCKLGYVTADGETSGSITCGKDGWSAQPTCIKSCDIPVFMNARTKNDFTWFKLNDTLDYECHDGYESNTGSTTGSIVCGYNGWSDLPICYERECELPKIDVHLVPDRKKDQYKVGEVLKFSCKPGFTIVGPNSVQCYHFGLSPDLPICKEQVQSCGPPPELLNGNVKEKTKEEYGHSEVVEYYCNPRFLMKGPNKIQCVDGEWTTLPVCIVEESTCGDIPELEHGWAQLSSPPYYYGDSVEFNCSESFTMIGHRSITCIHGVWTQLPQCVAIDKLKKCKSSNLIILEEHLKNKKEFDHNSNIRYRCRGKEGWIHTVCINGRWDPEVNCSMAQIQLCPPPPQIPNSHNMTTTLNYRDGEKVSVLCQENYLIQEGEEITCKDGRWQSIPLCVEKIPCSQPPQIEHGTINSSRSSQESYAHGTKLSYTCEGGFRISEENETTCYMGKWSSPPQCEGLPCKSPPEISHGVVAHMSDSYQYGEEVTYKCFEGFGIDGPAIAKCLGEKWSHPPSCIKTDCLSLPSFENAIPMGEKKDVYKAGEQVTYTCATYYKMDGASNVTCINSRWTGRPTCRDTSCVNPPTVQNAYIVSRQMSKYPSGERVRYQCRSPYEMFGDEEVMCLNGNWTEPPQCKDSTGKCGPPPPIDNGDITSFPLSVYAPASSVEYQCQNLYQLEGNKRITCRNGQWSEPPKCLHPCVISREIMENYNIALRWTAKQKLYSRTGESVEFVCKRGYRLSSRSHTLRTTCWDGKLEYPTCAKR chain 2: ATENEGSTQAATSSNMAKTEHRKAAKQVVDEYIEKMLREIQLDRRKHTQNVALNIKLSAIKTKYLRELNVLEEKSKDELPSEIKAKLDAAFEKFKKDTLKPGEK | 160 | – | –
PspC (37-130) (other) ATENEGSTQAATSSNMAKTEHRKAAKQVVDEYIEKMLREIQLDRRKHTQNVALNIKLSAIKTKYLRELNVLEEKSKDELPSEIKAKLDAAFEKF | – | ≥ 3 orders of magnitude | –
PspC (37-120) (other) ATENEGSTQAATSSNMAKTEHRKAAKQVVDEYIEKMLREIQLDRRKHTQNVALNIKLSAIKTKYLRELNVLEEKSKDELPSEIK | – | ≥ 3 orders of magnitude | –
PspC (37-110) (other) ATENEGSTQAATSSNMAKTEHRKAAKQVVDEYIEKMLREIQLDRRKHTQNVALNIKLSAIKTKYLRELNVLEEK | – | ≥ 3 orders of magnitude | –
SUMO (fusion partner alone) (other, UniProt Q12306 3-98, looked up) DSEVNQEAKPEVKPEVKPETHINLKVSDGSSEIFFKIKKTTPLRRLMEAFAKRQGKEMDSLRFLYDGIRIQADQTPEDLDMEDNDIIEAHREQIGG | – | – | binding result [1]: no binding

From US20190100563A1 (UNIVERSITY COURT OF THE UNIVERSITY OF EDINBURGH, published 2019)
